{
  "source": "FireProtDB (doi:10.1021/bi960863y)",
  "conditions": "Escherichia coli (strain K12), pH 7, Urea, CD, Potassium phosphate 10 mM, reversible: yes (>95%)",
  "data": [
    {"substance": "Phosphocarrier protein HPr wild type, P0AA04", "values": [
      {"measurement": "denaturant m value", "setting": "0 °C", "value": 1.29, "unit": "kcal/mol/M"},
      {"measurement": "denaturant midpoint (higher = more stable)", "setting": "0 °C", "value": 4, "unit": "M"},
      {"measurement": "unfolding free energy", "setting": "0 °C", "value": 4.63, "unit": "kcal/mol"},
      {"measurement": "denaturant m value", "setting": "5 °C", "value": 1.18, "unit": "kcal/mol/M"},
      {"measurement": "denaturant midpoint (higher = more stable)", "setting": "5 °C", "value": 4.38, "unit": "M"},
      {"measurement": "unfolding free energy", "setting": "5 °C", "value": 5.08, "unit": "kcal/mol"},
      {"measurement": "denaturant m value", "setting": "10 °C", "value": 1.36, "unit": "kcal/mol/M"},
      {"measurement": "denaturant midpoint (higher = more stable)", "setting": "10 °C", "value": 4.58, "unit": "M"},
      {"measurement": "unfolding free energy", "setting": "10 °C", "value": 5.31, "unit": "kcal/mol"},
      {"measurement": "denaturant m value", "setting": "25 °C", "value": 1.19, "unit": "kcal/mol/M"},
      {"measurement": "denaturant midpoint (higher = more stable)", "setting": "25 °C", "value": 4.58, "unit": "M"},
      {"measurement": "unfolding free energy", "setting": "25 °C", "value": 5.31, "unit": "kcal/mol"},
      {"measurement": "denaturant m value", "setting": "30 °C", "value": 1.14, "unit": "kcal/mol/M"},
      {"measurement": "denaturant midpoint (higher = more stable)", "setting": "30 °C", "value": 4.32, "unit": "M"},
      {"measurement": "unfolding free energy", "setting": "30 °C", "value": 5, "unit": "kcal/mol"},
      {"measurement": "denaturant m value", "setting": "35 °C", "value": 1.01, "unit": "kcal/mol/M"},
      {"measurement": "denaturant midpoint (higher = more stable)", "setting": "35 °C", "value": 4.04, "unit": "M"},
      {"measurement": "unfolding free energy", "setting": "35 °C", "value": 4.68, "unit": "kcal/mol"},
      {"measurement": "denaturant m value", "setting": "40 °C", "value": 1.06, "unit": "kcal/mol/M"},
      {"measurement": "denaturant midpoint (higher = more stable)", "setting": "40 °C", "value": 3.58, "unit": "M"},
      {"measurement": "unfolding free energy", "setting": "40 °C", "value": 4.14, "unit": "kcal/mol"},
      {"measurement": "denaturant m value", "setting": "45 °C", "value": 1.01, "unit": "kcal/mol/M"},
      {"measurement": "denaturant midpoint (higher = more stable)", "setting": "45 °C", "value": 2.9, "unit": "M"},
      {"measurement": "unfolding free energy", "setting": "45 °C", "value": 3.37, "unit": "kcal/mol"},
      {"measurement": "denaturant m value", "setting": "50 °C", "value": 1.11, "unit": "kcal/mol/M"},
      {"measurement": "denaturant midpoint (higher = more stable)", "setting": "50 °C", "value": 2.09, "unit": "M"},
      {"measurement": "unfolding free energy", "setting": "50 °C", "value": 2.42, "unit": "kcal/mol"}
    ]}
  ]
}
